In article doi:10.1101/2024.11.22.622898:

Target: Retromer (recombinant trimer) (human) (UniProt Q96QK1)
Assay: ITC

Kd	Substance
15.4 µM	DENND4C peptide 1189-1206
6.3 µM	recombinant full-length human TBC1D13 (from UniProt Q9NVG8 1-400) (natural protein)
